The target of assay [1] is T1, vaccinia-expressed E1E2 complex, isolate HCV-1 (genotype 1a) (hepatitis C virus, isolate HCV-1, UniProt P26664 192-383; P26664 384-746). Description: competition ELISA on HCV-1 E1E2; competitor m5 (AR3B).
Assay [2] deals with E1E2 complex of HCV isolate H77 (genotype 1a), wild type (HCV isolate H77, UniProt P27958 192-383; P27958 384-746). Description: competition ELISA on H77 E1E2; competitor m45 (Fab P3).
Assay [3] addresses T1, vaccinia-expressed E1E2 complex, …. In words: competition ELISA on HCV-1 E1E2; competitor m21 (CBH-5).
Assay [4] concerns the target H77 E1E2 mutant Q412A (HCV isolate H77, UniProt P27958 192-383; P27958 384-746). Description: ELISA, alanine mutant E1E2. (An ELISA detects its analyte on a solid surface through an enzyme-linked reagent.)
The target of assay [5] is H77 E1E2 mutant L413A (HCV isolate H77, UniProt P27958 192-383; P27958 384-746). In words: ELISA, alanine mutant E1E2.
Assay [6] concerns the target H77 E1E2 mutant I414A (HCV isolate H77, UniProt P27958 192-383; P27958 384-746). Description: ELISA, alanine mutant E1E2.
The target of assay [7] is H77 E1E2 mutant N415A (HCV isolate H77, UniProt P27958 192-383; P27958 384-746). Description: ELISA, alanine mutant E1E2.
For assay [8], the target named is H77 E1E2 mutant N417A (HCV isolate H77, UniProt P27958 192-383; P27958 384-746). In words: ELISA, alanine mutant E1E2.
In assay [9] the target is H77 E1E2 mutant G418A (HCV isolate H77, UniProt P27958 192-383; P27958 384-746). In words: ELISA, alanine mutant E1E2.
The target of assay [10] is H77 E1E2 mutant S419A (HCV isolate H77, UniProt P27958 192-383; P27958 384-746). In words: ELISA, alanine mutant E1E2.
Assay [11] concerns the target H77 E1E2 mutant H421A (HCV isolate H77, UniProt P27958 192-383; P27958 384-746). In words: ELISA, alanine mutant E1E2.
For assay [12], the target named is H77 E1E2 mutant I422A (HCV isolate H77, UniProt P27958 192-383; P27958 384-746). In words: ELISA, alanine mutant E1E2.
The target of assay [13] is H77 E1E2 mutant N423A (HCV isolate H77, UniProt P27958 192-383; P27958 384-746). In words: ELISA, alanine mutant E1E2.
Assay [14] deals with H77 E1E2 mutant S424A (HCV isolate H77, UniProt P27958 192-383; P27958 384-746). Description: ELISA, alanine mutant E1E2.
The target of assay [15] is H77 E1E2 mutant P484A (HCV isolate H77, UniProt P27958 192-383; P27958 384-746). Description: ELISA, alanine mutant E1E2.
Assay [16] has as its target H77 E1E2 mutant W487A (HCV isolate H77, UniProt P27958 192-383; P27958 384-746). In words: ELISA, alanine mutant E1E2.
The target in assay [17] is H77 E1E2 mutant H488A (HCV isolate H77, UniProt P27958 192-383; P27958 384-746). In words: ELISA, alanine mutant E1E2.
Assay [18] deals with H77 E1E2 mutant P525A (HCV isolate H77, UniProt P27958 192-383; P27958 384-746). Description: ELISA, alanine mutant E1E2.
Assay [19] addresses H77 E1E2 mutant T526A (HCV isolate H77, UniProt P27958 192-383; P27958 384-746). Description: ELISA, alanine mutant E1E2.
Assay [20] concerns the target H77 E1E2 mutant Y527A (HCV isolate H77, UniProt P27958 192-383; P27958 384-746). Description: ELISA, alanine mutant E1E2.
Assay [21] deals with H77 E1E2 mutant G530A (HCV isolate H77, UniProt P27958 192-383; P27958 384-746). In words: ELISA, alanine mutant E1E2.
Assay [22] addresses H77 E1E2 mutant D533A (HCV isolate H77, UniProt P27958 192-383; P27958 384-746). In words: ELISA, alanine mutant E1E2.
Assay [23] concerns the target H77 E1E2 mutant D535A (HCV isolate H77, UniProt P27958 192-383; P27958 384-746). Description: ELISA, alanine mutant E1E2.
Assay [24] addresses H77 E1E2 mutant R543A (HCV isolate H77, UniProt P27958 192-383; P27958 384-746). Description: ELISA, alanine mutant E1E2.
Assay [25] addresses H77 E1E2 mutant P544A (HCV isolate H77, UniProt P27958 192-383; P27958 384-746). Description: ELISA, alanine mutant E1E2.
In assay [26] the target is H77 E1E2 mutant P545A (HCV isolate H77, UniProt P27958 192-383; P27958 384-746). In words: ELISA, alanine mutant E1E2.
The target in assay [27] is H77 E1E2 mutant G547A (HCV isolate H77, UniProt P27958 192-383; P27958 384-746). Description: ELISA, alanine mutant E1E2.

B1: MAb AR3C (antibody, V domains shown)
VH: LEQSGAEVKKPGSSVKVSCETSGGTLDNYALNWVRQAPGQGLEWIGGVVPLFGTTRNAQKFQGRVTISDDKSTGTGHMELRSLRSEDTAVYYCVRSVTPRYCGGGFCYGEFDYWGQGTLVTVSS
VL: ELTQSPATLSVSPGERATLSCRASQSVSSNLAWYQQKPGQAPRLLIYGASTRATGIPARFSGSGSGTEFTLTVSRLEPEDSAVYFCQQYYRSPLTFGGGTKVEIKR
notes: also called IgG1 of Fab H3
Turning to B1, the “% residual binding” value in assay [1] was determined as 12%; in [2] it was 124%; in assay [3] it was 19%.

B2: MAb AR1B (antibody, V domains shown)
VH: LESGGGLVQPGGSLRLSCEASGYYFSSFAMSWVRQTPGKGLEWVSSIAGGTLGRTSYRDSVKGRFTISRDNSKNTVFLHMNNLRPEDTAVYYCAKDPLLFAGGPNWFDHWGQGTLVTVSS
VL: not shown
notes: also called IgG1 of Fab D1
On to B2, for which the “binding vs wild-type E1E2” value in assay [4] amounted to 48%; in assay [5] it was 109%; in assay [6], 147%; in assay [7], 131%; in assay [8], 54%; in assay [9], 143%. Moreover, the “binding vs wild-type E1E2” value worked out at 118% in [10]; 72% in [11]; 58% in assay [12]; 38% in assay [13]; 103% in assay [14]; 45% in assay [15]. Also, the “binding vs wild-type E1E2” value in assay [16] was 70%; in [17], 63%; in assay [18] it was 33%; in assay [19], 48%; in [20], 83%; in assay [21], 50%. The “binding vs wild-type E1E2” value is 90% in [22]; 121% in assay [23]; 135% in assay [24]; 16% in [25]; 20% in [26]; 0% in [27]. In addition, the “% residual binding” value in [1] was found to be 80%; in assay [2], 93%; in [3] it was 89%.

B3: MAb AR2A (antibody, V domains shown)
VH: LEQSGAEMKKPGASLKVSCKTSGYTFDDYGVTWVRQAPGQGLEWMGWISAYSGNTFYARKFQGRVTMTTDPSTRTAYMELRSLRSDDTAVYFCARDRGLAINGVVFPYFGLDVWGQGTTVTVSS
VL: ELTQSPVSLPVTPGEPASISCRSSQSLLHSNGNHYLDWYLQKPGQSPQLLMYLGSNRASGVPDRFSGSGSGTDFTLKISRVEAEDVGVYYCMQGLQTPWTFGQGTKVEIKR
notes: also called IgG1 of Fab G
B3: the “binding vs wild-type E1E2” value turned out to be 95% in assay [4]; 92% in [5]; 180% in assay [6]; 122% in [7]; 58% in [8]; 83% in assay [9]. Besides, the “binding vs wild-type E1E2” value in assay [10] stood at 93%; in [11], 84%; in assay [12] it was 95%; in assay [13] it was 69%; in [14], 91%; in assay [15], 77%. Further, the “binding vs wild-type E1E2” value in assay [16] came out at 93%; in assay [17], 72%; in assay [18], 109%; in assay [19], 101%; in [20], 149%; in [21], 53%. The “binding vs wild-type E1E2” value came to 60% in assay [22]; 133% in assay [23]; 125% in assay [24]; 126% in [25]; 106% in assay [26]; 83% in assay [27]. Moreover, the “% residual binding” value was 92% in assay [1], 72% in assay [2] and 91% in [3].

B4: MAb AR1A (antibody, V domains shown)
VH: LEQSGAEVKKPGSSVKVSCRASGSPYSSYTITWVRQAPGQGLEWMGGIILMTGKANYAQKFQGRVTITADRATATAYMEMSSLTSDDTAIYYCARDPYVYAGDDVRSLSRWGQGTPVIVSS
VL: not shown
notes: also called IgG1 of Fab B2
With B4, the “binding vs wild-type E1E2” value in assay [4] turned out to be 145%; in [5] it was 103%; in [6] it was 128%; in [7], 106%; in assay [8] it was 17%; in assay [9] it was 51%. In addition, the “binding vs wild-type E1E2” value in assay [10] stood at 84%; in [11] it was 167%; in [12], 106%; in assay [13], 79%; in assay [14], 103%; in assay [15] it was 38%. Moreover, the “binding vs wild-type E1E2” value in assay [16] came out at 89%; in assay [17] it was 91%; in assay [18], 101%; in [19], 81%; in [20], 61%; in [21], 227%. Besides, the “binding vs wild-type E1E2” value in [22] was determined as 101%; in assay [23], 235%; in [24], 239%; in assay [25] it was 69%; in assay [26] it was 74%; in [27] it was 34%. The “% residual binding” value came out at 53% in [1], 85% in [2] and 54% in [3].
